Measured values taken from patent publication US20010052137.

Assays:
[1] = tested on: Myc-tagged deltaDIX construct of Xaxin (amino acid residues 1-778)
[2] = tested on: T1, Myc-tagged GID-1 fragment of Xaxin (amino acid residues 277-545)
T1 sequence: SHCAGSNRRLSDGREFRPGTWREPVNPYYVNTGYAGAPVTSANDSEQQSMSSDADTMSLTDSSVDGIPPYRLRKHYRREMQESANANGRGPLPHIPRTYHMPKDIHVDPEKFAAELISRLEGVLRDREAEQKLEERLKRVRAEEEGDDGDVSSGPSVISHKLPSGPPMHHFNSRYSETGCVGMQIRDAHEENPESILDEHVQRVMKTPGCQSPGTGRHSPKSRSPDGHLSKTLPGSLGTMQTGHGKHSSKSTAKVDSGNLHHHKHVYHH

[3] = tested on: Myc-tagged N-term fragment of Xaxin (amino acid residues 63-288)
Myc-tagged N-term fragment of Xaxin (amino acid residues 63-288), sequence (chain, as listed by the source): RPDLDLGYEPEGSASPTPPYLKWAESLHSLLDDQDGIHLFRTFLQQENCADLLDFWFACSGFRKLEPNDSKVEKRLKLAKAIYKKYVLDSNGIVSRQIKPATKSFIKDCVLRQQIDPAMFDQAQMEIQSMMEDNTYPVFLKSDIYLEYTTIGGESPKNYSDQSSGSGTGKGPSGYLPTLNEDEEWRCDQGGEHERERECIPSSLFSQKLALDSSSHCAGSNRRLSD

[4] = tested on: Myc-tagged deltaGID construct of Xaxin (amino acid residues 1-324 fused to residues 504-842)
[5] = tested on: Myc-tagged full length Xenopus axin (FL Xaxin, amino acid residues 1-842)
[6] = tested on: T2, Myc-tagged C-term fragment of Xaxin (amino acid residues 429-713)
T2 sequence: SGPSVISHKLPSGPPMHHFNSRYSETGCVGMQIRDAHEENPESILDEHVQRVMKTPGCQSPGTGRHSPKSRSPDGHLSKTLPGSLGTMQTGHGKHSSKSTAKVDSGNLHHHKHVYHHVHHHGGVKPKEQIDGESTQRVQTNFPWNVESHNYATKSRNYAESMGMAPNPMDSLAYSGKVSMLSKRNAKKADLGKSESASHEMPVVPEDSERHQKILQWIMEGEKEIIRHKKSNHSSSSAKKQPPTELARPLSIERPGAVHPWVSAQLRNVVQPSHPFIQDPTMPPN

[7] = tested on: T3, Myc-tagged deltaRGS construct of Xaxin (amino acid residues 1-80 fused to residues 290-842)
T3 sequence: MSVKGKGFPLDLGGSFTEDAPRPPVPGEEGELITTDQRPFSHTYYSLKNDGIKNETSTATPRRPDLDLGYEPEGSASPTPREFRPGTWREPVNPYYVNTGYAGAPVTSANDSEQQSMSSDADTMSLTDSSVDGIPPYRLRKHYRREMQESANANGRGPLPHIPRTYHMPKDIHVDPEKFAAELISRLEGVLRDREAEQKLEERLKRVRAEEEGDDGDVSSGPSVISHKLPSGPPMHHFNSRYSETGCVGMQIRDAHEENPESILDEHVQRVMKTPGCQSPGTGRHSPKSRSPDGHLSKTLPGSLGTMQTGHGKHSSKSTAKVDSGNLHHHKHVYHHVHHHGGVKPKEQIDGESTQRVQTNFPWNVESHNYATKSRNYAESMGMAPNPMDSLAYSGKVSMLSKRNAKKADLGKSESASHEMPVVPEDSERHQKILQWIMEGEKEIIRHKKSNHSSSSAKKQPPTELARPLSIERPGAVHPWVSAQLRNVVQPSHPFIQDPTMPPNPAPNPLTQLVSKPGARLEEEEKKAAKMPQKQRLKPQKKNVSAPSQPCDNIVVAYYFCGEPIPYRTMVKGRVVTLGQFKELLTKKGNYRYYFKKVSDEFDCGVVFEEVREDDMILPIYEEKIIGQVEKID

GSK-3 beta (glycogen synthase kinase-3 beta) expressed in Xenopus oocytes
GSK-3 beta activity (tau phosphorylation assay in Xenopus oocytes) [1]: partially inhibited GSK-3 beta activity
GSK-3 beta mediated tau phosphorylation in Xenopus oocytes [2]: bound GSK-3 beta and inhibited GSK-3 beta mediated tau phosphorylation
GSK-3 beta-mediated tau phosphorylation in Xenopus oocytes (PHF-1 immunoblot) [2]: virtually complete inhibition of GSK-3 beta-mediated tau phosphorylation
GSK-3 beta-mediated tau phosphorylation in Xenopus oocytes (PHF-1 immunoblot) [3]: had no effect on GSK-3 beta activity
GSK-3 beta activity in the tau-phosphorylation assay in Xenopus oocytes [4]: had no discernible effect on GSK-3 beta activity in the tau-phosphorylation assay
GSK-3 beta-mediated tau phosphorylation in Xenopus oocytes (PHF-1 immunoblot) [5]: had no discernible effect on tau phosphorylation
GSK-3 beta-mediated tau phosphorylation in Xenopus oocytes (PHF-1 immunoblot) [6]: had no effect on GSK-3 beta activity
tau protein phosphorylation mediated by GSK-3 beta in Xenopus oocytes [7]: inhibited tau protein phosphorylation mediated by GSK-3 beta in a dose-dependent manner
